The assay addresses PD-1 (human). Kind of assay: cell-based or functional assay.

Chain of Full length ECD of PD-L2 (ligand) (Q9BQ51 20-220): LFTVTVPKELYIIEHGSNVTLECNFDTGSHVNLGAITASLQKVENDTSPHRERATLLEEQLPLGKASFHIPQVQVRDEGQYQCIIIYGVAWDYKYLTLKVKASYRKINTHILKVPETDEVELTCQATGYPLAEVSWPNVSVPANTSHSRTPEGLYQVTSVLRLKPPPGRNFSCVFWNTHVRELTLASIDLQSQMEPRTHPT

For the substance “PD-L2 IgV-Fc I13V, H15Q, T47A, H69L, R76G, V89D (Fc fusion)”, the Fold increase over wildtype PD-L2 IgV-Fc, MLR IFN gamma was found to be 0.78 fold and the IFN gamma levels pg/mL, MLR stood at 1080 pg/mL. “PD-L2 IgV-Fc I13V, H15Q, Q72H, R76G, I86T (Fc fusion)” came in with a Fold increase over wildtype PD-L2 IgV-Fc, MLR IFN gamma of 0.89 fold and an IFN gamma levels pg/mL, MLR of 1220 pg/mL. For “PD-L2 IgV-Fc N32D, S67L, V89D (Fc fusion)” the same measures were 0.87 fold and 1190 pg/mL. On the same counts, the results for “PD-L2 IgV-Fc I13V, H15Q, V89D (Fc fusion)” are 0.82 fold and 1120 pg/mL. On the same counts, the results for “PD-L2 IgV-Fc I13V, H15Q, R76G, D77N, Q82R, V89D (Fc fusion)” are 0.86 fold and 1190 pg/mL. For the substance “PD-L2 IgV-Fc H15Q, L33P, T47A, S67L, P71S, V89D (Fc fusion)”, the Fold increase over wildtype PD-L2 IgV-Fc, MLR IFN gamma stood at 0.94 fold and the IFN gamma levels pg/mL, MLR is 1290 pg/mL.

“PD-L2 IgV-Fc I13V, H15Q, T47A, E58G, S67L, Q82R, V89D (Fc fusion)” registered a Fold increase over wildtype PD-L2 IgV-Fc, MLR IFN gamma of 0.61 fold and an IFN gamma levels pg/mL, MLR of 836 pg/mL. As for “PD-L2 IgV-Fc I13V, H15Q, R76G, I85F (Fc fusion)”, the Fold increase over wildtype PD-L2 IgV-Fc, MLR IFN gamma was found to be 1.11 fold and the IFN gamma levels pg/mL, MLR amounted to 1530 pg/mL. On the same counts, the results for “PD-L2 IgV-Fc H15Q, S39I, S67L, V89D (Fc fusion)” are 0.89 fold and 1230 pg/mL. On the same counts, the results for PD-L2 IgV-Fc N24D (Fc fusion) are 1.44 fold and 1980 pg/mL. For “PD-L2 IgV-Fc I13V, H15Q, T47A, Q72H, R76G (Fc fusion)” the same measures were 1.07 fold and 1470 pg/mL. Take PD-L2 IgV-Fc S39I, V89D (Fc fusion): the Fold increase over wildtype PD-L2 IgV-Fc, MLR IFN gamma was 0.95 fold and the IFN gamma levels pg/mL, MLR came to 1310 pg/mL. For “PD-L2 IgV-Fc H15Q, S39I, E44D, Q72H, V75G, R76G, Q82R, V89D (Fc fusion)” the same measures were 0.68 fold and 941 pg/mL. As for “PD-L2 IgV-Fc H15Q, Q82R, V89D (Fc fusion)”, the Fold increase over wildtype PD-L2 IgV-Fc, MLR IFN gamma amounted to 0.79 fold and the IFN gamma levels pg/mL, MLR worked out at 1080 pg/mL. For “PD-L2 IgV-Fc H15Q, E44D, R76G, I85F (Fc fusion)” the same measures were 1.01 fold and 1390 pg/mL. In the case of PD-L2 IgV-Fc H15Q, V89D (Fc fusion), the Fold increase over wildtype PD-L2 IgV-Fc, MLR IFN gamma stood at 1.09 fold and the IFN gamma levels pg/mL, MLR came out at 1500 pg/mL. On the same counts, the results for “PD-L2 IgV-Fc H15Q, S67L, I86T (Fc fusion)” are 0.75 fold and 1030 pg/mL. Turning to “PD-L2 IgV-Fc H15Q, S39I, I86T (Fc fusion)”, the Fold increase over wildtype PD-L2 IgV-Fc, MLR IFN gamma was 1.03 fold and the IFN gamma levels pg/mL, MLR stood at 1420 pg/mL. On to “PD-L2 IgV-Fc H15Q, S67L, R76G (Fc fusion)”, for which the Fold increase over wildtype PD-L2 IgV-Fc, MLR IFN gamma is 1.04 fold and the IFN gamma levels pg/mL, MLR is 1430 pg/mL. For “PD-L2 IgV-Fc I13V, H15Q, Q82R (Fc fusion)” the same measures were 1.04 fold and 1430 pg/mL. Turning to Full length ECD of PD-L2 (ligand), the IFN gamma levels pg/mL, MLR came to 1170 pg/mL. Take “PD-L2 IgV-Fc E44D, S67L, Q72H, Q82R, V89D (Fc fusion)”: the Fold increase over wildtype PD-L2 IgV-Fc, MLR IFN gamma was 0.93 fold and the IFN gamma levels pg/mL, MLR came out at 1280 pg/mL. On to “PD-L2 IgV-Fc I13V, H15Q, T47A, Q82R (Fc fusion)”, for which the Fold increase over wildtype PD-L2 IgV-Fc, MLR IFN gamma was 1.24 fold and the IFN gamma levels pg/mL, MLR was 1700 pg/mL.

Source of the values: US20200040059A1.
